Measured values from patent publication US20200283478A1 (Genentech, published 2020).
Square brackets hold non-standard residues; d marks the D form. Ends that are not written are not given here. hArg = N=C(N)NCCCC[C@H](N)C(=O)O

B1: Compound 231 (peptide)
peptide: Ac-ESYPGWNLV[hArg]IGLLR-NH2
SMILES: CC[C@H](C)[C@H](NC(=O)[C@H](CCCCNC(=N)N)NC(=O)[C@@H](NC(=O)[C@H](CC(C)C)NC(=O)[C@H](CC(N)=O)NC(=O)[C@H](Cc1c[nH]c2ccccc12)NC(=O)CNC(=O)[C@@H]1CCCN1C(=O)[C@H](Cc1ccc(O)cc1)NC(=O)[C@H](CO)NC(=O)[C@H](CCC(=O)O)NC(C)=O)C(C)C)C(=O)NCC(=O)N[C@@H](CC(C)C)C(=O)N[C@@H](CC(C)C)C(=O)N[C@@H](CCCNC(=N)N)C(N)=O
B2: Compound 230 (peptide)
peptide: Ac-DSYPGWNLV[hArg]IGLLR-NH2
SMILES: CC[C@H](C)[C@H](NC(=O)[C@H](CCCCNC(=N)N)NC(=O)[C@@H](NC(=O)[C@H](CC(C)C)NC(=O)[C@H](CC(N)=O)NC(=O)[C@H](Cc1c[nH]c2ccccc12)NC(=O)CNC(=O)[C@@H]1CCCN1C(=O)[C@H](Cc1ccc(O)cc1)NC(=O)[C@H](CO)NC(=O)[C@H](CC(=O)O)NC(C)=O)C(C)C)C(=O)NCC(=O)N[C@@H](CC(C)C)C(=O)N[C@@H](CC(C)C)C(=O)N[C@@H](CCCNC(=N)N)C(N)=O
B3: Compound 227 (peptide)
peptide: Ac-ESFPGWNLV[hArg]IGLLR-NH2
SMILES: CC[C@H](C)[C@H](NC(=O)[C@H](CCCCNC(=N)N)NC(=O)[C@@H](NC(=O)[C@H](CC(C)C)NC(=O)[C@H](CC(N)=O)NC(=O)[C@H](Cc1c[nH]c2ccccc12)NC(=O)CNC(=O)[C@@H]1CCCN1C(=O)[C@H](Cc1ccccc1)NC(=O)[C@H](CO)NC(=O)[C@H](CCC(=O)O)NC(C)=O)C(C)C)C(=O)NCC(=O)N[C@@H](CC(C)C)C(=O)N[C@@H](CC(C)C)C(=O)N[C@@H](CCCNC(=N)N)C(N)=O
B4: Compound 228 (peptide)
peptide: Ac-SFAFPGWNLV[hArg]IGLLR-NH2
SMILES: CC[C@H](C)[C@H](NC(=O)[C@H](CCCCNC(=N)N)NC(=O)[C@@H](NC(=O)[C@H](CC(C)C)NC(=O)[C@H](CC(N)=O)NC(=O)[C@H](Cc1c[nH]c2ccccc12)NC(=O)CNC(=O)[C@@H]1CCCN1C(=O)[C@H](Cc1ccccc1)NC(=O)[C@H](C)NC(=O)[C@H](Cc1ccccc1)NC(=O)[C@H](CO)NC(C)=O)C(C)C)C(=O)NCC(=O)N[C@@H](CC(C)C)C(=O)N[C@@H](CC(C)C)C(=O)N[C@@H](CCCNC(=N)N)C(N)=O
B5: Compound 232 (peptide)
peptide: Ac-SFAFPGWNLK[hArg]IGLLR-NH2
SMILES: CC[C@H](C)[C@H](NC(=O)[C@H](CCCCNC(=N)N)NC(=O)[C@H](CCCCN)NC(=O)[C@H](CC(C)C)NC(=O)[C@H](CC(N)=O)NC(=O)[C@H](Cc1c[nH]c2ccccc12)NC(=O)CNC(=O)[C@@H]1CCCN1C(=O)[C@H](Cc1ccccc1)NC(=O)[C@H](C)NC(=O)[C@H](Cc1ccccc1)NC(=O)[C@H](CO)NC(C)=O)C(=O)NCC(=O)N[C@@H](CC(C)C)C(=O)N[C@@H](CC(C)C)C(=O)N[C@@H](CCCNC(=N)N)C(N)=O

target: T1, His-tagged, full-length PCSK9 (human, UniProt Q8NBP7 31-692); assay: TR-FRET competition; His-PCSK9, competitor EGF(A)-Fc
T1 construct: The secreted protein is autocleaved into a prodomain and a catalytic/Cys-rich chain that starts at S153; also called His-PCSK9
T1 sequence (Q8NBP7 other isoform, or with tags, fused parts or gaps limits assumed): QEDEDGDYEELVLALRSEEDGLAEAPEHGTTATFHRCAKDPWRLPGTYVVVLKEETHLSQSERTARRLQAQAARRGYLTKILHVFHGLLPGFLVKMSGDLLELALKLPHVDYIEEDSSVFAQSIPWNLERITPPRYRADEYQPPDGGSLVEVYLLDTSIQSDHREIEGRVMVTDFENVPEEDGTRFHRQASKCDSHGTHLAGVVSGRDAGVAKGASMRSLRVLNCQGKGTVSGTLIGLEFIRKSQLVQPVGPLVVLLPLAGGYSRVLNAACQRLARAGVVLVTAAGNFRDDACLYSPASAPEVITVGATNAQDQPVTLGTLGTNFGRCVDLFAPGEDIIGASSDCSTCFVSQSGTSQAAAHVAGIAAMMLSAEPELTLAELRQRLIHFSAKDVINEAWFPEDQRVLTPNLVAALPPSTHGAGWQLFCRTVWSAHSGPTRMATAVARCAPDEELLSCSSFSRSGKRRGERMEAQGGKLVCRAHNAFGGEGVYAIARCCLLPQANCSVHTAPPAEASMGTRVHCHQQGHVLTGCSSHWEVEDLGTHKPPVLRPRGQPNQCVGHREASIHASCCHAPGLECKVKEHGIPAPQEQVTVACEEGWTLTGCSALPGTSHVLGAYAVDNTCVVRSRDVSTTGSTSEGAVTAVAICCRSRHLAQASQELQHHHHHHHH

Row | IC50 [µM] | Binder
1 | 7 | WNLV[hArg]IGLLR (also: further groups not given here, Structure printed only as a drawing) [Compound 215]
2 | 1.7 | WNLV[hArg]IGLLR (also: end groups and other groups only in drawing, Structure printed only as a drawing) [Compound 198]
3 | 3.8 | WNLV[hArg]IGLLR (also: further groups not given here, Structure printed only as a drawing) [Compound 213]
4 | 3.9 | WNLV[hArg]IGLLR (also: end groups and other groups only in drawing, Structure printed only as a drawing) [Compound 201]
5 | 1.8 | WNLV[hArg]IGLLR (also: further groups not given here, Structure printed only as a drawing) [Compound 206]
6 | 27 | WNLV[hArg]IGLLR (also: further groups not given here, Structure printed only as a drawing) [Compound 225]
7 | 0.45 | WNLV[hArg]IGLLR (also: further groups not given here, Structure printed only as a drawing) [Compound 208]
8 | 1.3 | WNLV[hArg]IGLLR (also: further groups not given here, Structure printed only as a drawing) [Compound 207]
9 | 15 | WNLV[hArg]IGLLR (also: further groups not given here, Structure printed only as a drawing) [Compound 212]
10 | 9.5 | WNLV[hArg]IGLLR (also: further groups not given here, Structure printed only as a drawing) [Compound 221]
11 | 5 | WNLV[hArg]IGLLR (also: further groups not given here, Structure printed only as a drawing) [Compound 218]
12 | 2.8 | WNLV[hArg]IGLLR (also: end groups and other groups only in drawing, Structure printed only as a drawing) [Compound 205]
13 | 1.6 | B1
14 | 2.3 | B2
15 | 2.5 | B3
16 | 9.9 | WNLV[hArg]IGLLR (also: further groups not given here, Structure printed only as a drawing) [Compound 219]
17 | 21 | WNLV[hArg]IGLLR (also: further groups not given here, Structure printed only as a drawing) [Compound 223]

Row | IC50 [µM] | Binder
18 | 6 | WNLV[hArg]IGLLR (also: further groups not given here, Structure printed only as a drawing) [Compound 216]
19 | 14 | WNLV[hArg]IGLLR (also: further groups not given here, Structure printed only as a drawing) [Compound 211]
20 | 2.6 | WNLV[hArg]IGLLR (also: end groups and other groups only in drawing, Structure printed only as a drawing) [Compound 202]
21 | 2.9 | WNLV[hArg]IGLLR (also: further groups not given here, Structure printed only as a drawing) [Compound 209]
22 | 21 | WNLV[hArg]IGLLR (also: further groups not given here, Structure printed only as a drawing) [Compound 222]
23 | 1.3 | B4
24 | 0.93 | B5
25 | 6.2 | WNLV[hArg]IGLLR (also: further groups not given here, Structure printed only as a drawing) [Compound 226]
26 | 3.6 | WNLV[hArg]IGLLR (also: further groups not given here, Structure printed only as a drawing) [Compound 204]
27 | 21 | WNLV[hArg]IGLLR (also: end groups and other groups only in drawing, Structure printed only as a drawing) [Compound 203]
28 | 3 | WNLV[hArg]IGLLR (also: further groups not given here, Structure printed only as a drawing) [Compound 210]
29 | 0.98 | WNLV[hArg]IGLLR (also: end groups and other groups only in drawing, Structure printed only as a drawing) [Compound 199]
30 | 3.2 | WNLV[hArg]IGLLR (also: end groups and other groups only in drawing, Structure printed only as a drawing) [Compound 200]
31 | 4.1 | WNLV[hArg]IGLLR (also: further groups not given here, Structure printed only as a drawing) [Compound 217]
32 | 37 | WNLV[hArg]IGLLR (also: further groups not given here, Structure printed only as a drawing) [Compound 220]
33 | 3 | WNLV[hArg]IGLLR (also: further groups not given here, Structure printed only as a drawing) [Compound 214]
34 | 7 | WNLV[hArg]IGLLR (also: further groups not given here, Structure printed only as a drawing) [Compound 224]

target: T2, His-tagged PCSK9Δhelix (human, UniProt Q8NBP7 31-152; Q8NBP7 168-692); assay: TR-FRET competition; His-PCSK9Δhelix, competitor Ab20
T2 construct: Construct M1-Q692 with engineered TEV site, cut by TEV protease; new N-terminus of the catalytic domain is S-A168; also called His-PCSK9Δhelix
T2 sequence (Q8NBP7 31-152, stated change not applied, chain 1 of 2): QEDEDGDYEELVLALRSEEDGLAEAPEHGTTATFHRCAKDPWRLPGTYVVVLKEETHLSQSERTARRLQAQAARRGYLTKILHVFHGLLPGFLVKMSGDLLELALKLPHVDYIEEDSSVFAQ
T2 sequence (Q8NBP7 other isoform, or with tags, fused parts or gaps mutant, chain 2 of 2): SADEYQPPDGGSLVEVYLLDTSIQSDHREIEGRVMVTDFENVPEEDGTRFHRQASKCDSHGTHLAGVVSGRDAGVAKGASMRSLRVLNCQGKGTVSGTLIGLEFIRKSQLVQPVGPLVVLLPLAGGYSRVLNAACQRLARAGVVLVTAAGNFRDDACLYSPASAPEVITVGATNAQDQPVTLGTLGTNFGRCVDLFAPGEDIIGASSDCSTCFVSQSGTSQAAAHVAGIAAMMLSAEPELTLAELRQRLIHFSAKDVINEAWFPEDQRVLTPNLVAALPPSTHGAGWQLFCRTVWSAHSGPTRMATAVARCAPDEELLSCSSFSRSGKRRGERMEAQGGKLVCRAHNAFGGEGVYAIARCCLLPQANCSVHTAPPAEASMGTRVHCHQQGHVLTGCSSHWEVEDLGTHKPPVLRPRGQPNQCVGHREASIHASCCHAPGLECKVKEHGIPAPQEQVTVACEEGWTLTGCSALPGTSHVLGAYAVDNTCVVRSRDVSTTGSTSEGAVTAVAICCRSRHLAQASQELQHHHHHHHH
Description: Signal generation in the PCSK9 binding assays was dependent upon the binding interaction to bring into close proximity the His-tag on the PCSK9 and the Fc-tag on the ligand. Anti-His-APC was bound to the His-tag, and anti-Fc-europium was bound to the Fc-tag.
Compounds were solubilized and dilutions were prepared in DMSO. […] The plate was centrifuged to mix the well contents and allowed to incubate for 30 min. […] The normalized TR-FRET ratios were plotted as a function of the compound concentrations, and the IC₅₀ values were determined using a 4-parameter logistic regression.

Row | IC50 [nM] | Binder
35 | 480 | WNLV[hArg]IGLLR (also: further groups not given here, Structure printed only as a drawing) [Compound 215]
36 | 250 | WNLV[hArg]IGLLR (also: end groups and other groups only in drawing, Structure printed only as a drawing) [Compound 198]
37 | 200 | WNLV[hArg]IGLLR (also: further groups not given here, Structure printed only as a drawing) [Compound 213]
38 | 1000 | WNLV[hArg]IGLLR (also: end groups and other groups only in drawing, Structure printed only as a drawing) [Compound 201]
39 | 870 | WNLV[hArg]IGLLR (also: further groups not given here, Structure printed only as a drawing) [Compound 206]
40 | 1800 | WNLV[hArg]IGLLR (also: further groups not given here, Structure printed only as a drawing) [Compound 225]
41 | 100 | WNLV[hArg]IGLLR (also: further groups not given here, Structure printed only as a drawing) [Compound 208]
42 | 320 | WNLV[hArg]IGLLR (also: further groups not given here, Structure printed only as a drawing) [Compound 207]
43 | 1600 | WNLV[hArg]IGLLR (also: further groups not given here, Structure printed only as a drawing) [Compound 212]
44 | 650 | WNLV[hArg]IGLLR (also: further groups not given here, Structure printed only as a drawing) [Compound 221]
45 | 260 | WNLV[hArg]IGLLR (also: further groups not given here, Structure printed only as a drawing) [Compound 218]
46 | 640 | WNLV[hArg]IGLLR (also: end groups and other groups only in drawing, Structure printed only as a drawing) [Compound 205]
47 | 17000 | B1
48 | 24000 | B2
49 | 24000 | B3
50 | 680 | WNLV[hArg]IGLLR (also: further groups not given here, Structure printed only as a drawing) [Compound 219]
51 | 1400 | WNLV[hArg]IGLLR (also: further groups not given here, Structure printed only as a drawing) [Compound 223]

Row | IC50 [nM] | Binder
52 | 300 | WNLV[hArg]IGLLR (also: further groups not given here, Structure printed only as a drawing) [Compound 216]
53 | 3800 | WNLV[hArg]IGLLR (also: further groups not given here, Structure printed only as a drawing) [Compound 211]
54 | 340 | WNLV[hArg]IGLLR (also: end groups and other groups only in drawing, Structure printed only as a drawing) [Compound 202]
55 | 450 | WNLV[hArg]IGLLR (also: further groups not given here, Structure printed only as a drawing) [Compound 209]
56 | 1400 | WNLV[hArg]IGLLR (also: further groups not given here, Structure printed only as a drawing) [Compound 222]
57 | 13000 | B4
58 | 13000 | B5
59 | 350 | WNLV[hArg]IGLLR (also: further groups not given here, Structure printed only as a drawing) [Compound 226]
60 | 870 | WNLV[hArg]IGLLR (also: further groups not given here, Structure printed only as a drawing) [Compound 204]
61 | 1600 | WNLV[hArg]IGLLR (also: end groups and other groups only in drawing, Structure printed only as a drawing) [Compound 203]
62 | 840 | WNLV[hArg]IGLLR (also: further groups not given here, Structure printed only as a drawing) [Compound 210]
63 | 200 | WNLV[hArg]IGLLR (also: end groups and other groups only in drawing, Structure printed only as a drawing) [Compound 199]
64 | 670 | WNLV[hArg]IGLLR (also: end groups and other groups only in drawing, Structure printed only as a drawing) [Compound 200]
65 | 390 | WNLV[hArg]IGLLR (also: further groups not given here, Structure printed only as a drawing) [Compound 217]
66 | 910 | WNLV[hArg]IGLLR (also: further groups not given here, Structure printed only as a drawing) [Compound 220]
67 | 210 | WNLV[hArg]IGLLR (also: further groups not given here, Structure printed only as a drawing) [Compound 214]
68 | 530 | WNLV[hArg]IGLLR (also: further groups not given here, Structure printed only as a drawing) [Compound 224]
